Assay results published in patent US20130164281A1 (SAMSUNG ELECTRONICS, published 2013).
Changes are numbered by the printed parent chain.

B1: deimmunized humanized antibody huAbF46 including a combination of AT-VH3 and AT-Vk2 (antibody, IgG1, V domains shown)
VH: EVQLVESGGGLVQPGGSLRLSCATSGFTFTDYYMSWVRQPPGKGLEWLGFIRNKANGYTTEYSASVKGRFTISRDNSKSTLYLQMNSLRAEDTATYYCARDNWFAYWGQGTLVTVSS
VL: DILMTQSPSSLSASVGDRVTITCKSSQSLLASGNQNNYLAWHQQKPGKAPKMLIIWASTRVSGVPDRFIGSGSGTDFTLTISSLQAEDVAVYYCQQSYSAPLTFGQGTKLEIK
notes: expressed from pANTVhG1 and pANTVk vectors (IgG1, kappa) in HEK293 cells; also called AT-VH3/AT-Vk2
B2: deimmunized humanized antibody huAbF46 including a combination of AT-VH2 and AT-Vk2 (antibody, IgG1, V domains shown)
VH: B1 VH with Q3K
VL: B1 VL
notes: expressed from pANTVhG1 and pANTVk vectors (IgG1, kappa) in HEK293 cells; also called AT-VH2/AT-Vk2
B3: deimmunized humanized antibody huAbF46 including a combination of AT-VH4 and AT-Vk4 (antibody, IgG1, V domains shown)
VH: B1 VH with S79N
VL: B1 VL with L3Q, I69S
notes: expressed from pANTVhG1 and pANTVk vectors (IgG1, kappa) in HEK293 cells; also called AT-VH4/AT-Vk4
B4: deimmunized humanized antibody huAbF46 including a combination of AT-VH1 and AT-Vk3 (antibody, IgG1, V domains shown)
VH: B1 VH with Q3K, T93S
VL: B1 VL with L3Q
notes: expressed from pANTVhG1 and pANTVk vectors (IgG1, kappa) in HEK293 cells; also called AT-VH1/AT-Vk3
B5: deimmunized humanized antibody huAbF46 including a combination of AT-VH5 and AT-Vk3 (antibody, IgG1, V domains shown)
VH: B1 VH with S79N, T95V
VL: B1 VL with L3Q
notes: expressed from pANTVhG1 and pANTVk vectors (IgG1, kappa) in HEK293 cells; also called AT-VH5/AT-Vk3
B6: deimmunized humanized antibody huAbF46 including a combination of AT-VH2 and AT-Vk3 (antibody, IgG1, V domains shown)
VH: B1 VH with Q3K
VL: B1 VL with L3Q
notes: expressed from pANTVhG1 and pANTVk vectors (IgG1, kappa) in HEK293 cells; also called AT-VH2/AT-Vk3
B7: deimmunized humanized antibody huAbF46 including a combination of AT-VH2 and AT-Vk4 (antibody, IgG1, V domains shown)
VH: B1 VH with Q3K
VL: B1 VL with L3Q, I69S
notes: expressed from pANTVhG1 and pANTVk vectors (IgG1, kappa) in HEK293 cells; also called AT-VH2/AT-Vk4
B8: deimmunized humanized antibody huAbF46 including a combination of AT-VH3 and AT-Vk4 (antibody, IgG1, V domains shown)
VH: B1 VH
VL: B1 VL with L3Q, I69S
notes: expressed from pANTVhG1 and pANTVk vectors (IgG1, kappa) in HEK293 cells; also called AT-VH3/AT-Vk4
B9: deimmunized humanized antibody huAbF46 including a combination of AT-VH5 and AT-Vk4 (antibody, IgG1, V domains shown)
VH: B1 VH with S79N, T95V
VL: B1 VL with L3Q, I69S
notes: expressed from pANTVhG1 and pANTVk vectors (IgG1, kappa) in HEK293 cells; also called AT-VH5/AT-Vk4
B10: deimmunized humanized antibody huAbF46 including a combination of AT-VH2 and AT-Vk1 (antibody, IgG1, V domains shown)
VH: B1 VH with Q3K
VL: B1 VL with S12T, I21M
notes: expressed from pANTVhG1 and pANTVk vectors (IgG1, kappa) in HEK293 cells; also called AT-VH2/AT-Vk1
B11: deimmunized humanized antibody huAbF46 including a combination of AT-VH4 and AT-Vk3 (antibody, IgG1, V domains shown)
VH: B1 VH with S79N
VL: B1 VL with L3Q
notes: expressed from pANTVhG1 and pANTVk vectors (IgG1, kappa) in HEK293 cells; also called AT-VH4/AT-Vk3
B12: deimmunized humanized antibody huAbF46 including a combination of AT-VH3 and AT-Vk3 (antibody, IgG1, V domains shown)
VH: B1 VH
VL: B1 VL with L3Q
notes: expressed from pANTVhG1 and pANTVk vectors (IgG1, kappa) in HEK293 cells; also called AT-VH3/AT-Vk3
B13: deimmunized humanized antibody huAbF46 including a combination of AT-VH1 and AT-Vk4 (antibody, IgG1, V domains shown)
VH: B1 VH with Q3K, T93S
VL: B1 VL with L3Q, I69S
notes: expressed from pANTVhG1 and pANTVk vectors (IgG1, kappa) in HEK293 cells; also called AT-VH1/AT-Vk4
B14: deimmunized humanized antibody huAbF46 including a combination of AT-VH1 and AT-Vk2 (antibody, IgG1, V domains shown)
VH: B1 VH with Q3K, T93S
VL: B1 VL
notes: expressed from pANTVhG1 and pANTVk vectors (IgG1, kappa) in HEK293 cells; also called AT-VH1/AT-Vk2
B15: deimmunized humanized antibody huAbF46 including a combination of AT-VH4 and AT-Vk2 (antibody, IgG1, V domains shown)
VH: B1 VH with S79N
VL: B1 VL
notes: expressed from pANTVhG1 and pANTVk vectors (IgG1, kappa) in HEK293 cells; also called AT-VH4/AT-Vk2
B16: deimmunized humanized antibody huAbF46 including a combination of AT-VH5 and AT-Vk1 (antibody, IgG1, V domains shown)
VH: B1 VH with S79N, T95V
VL: B1 VL with S12T, I21M
notes: expressed from pANTVhG1 and pANTVk vectors (IgG1, kappa) in HEK293 cells; also called AT-VH5/AT-Vk1
B17: deimmunized humanized antibody huAbF46 including a combination of AT-VH5 and AT-Vk2 (antibody, IgG1, V domains shown)
VH: B1 VH with S79N, T95V
VL: B1 VL
notes: expressed from pANTVhG1 and pANTVk vectors (IgG1, kappa) in HEK293 cells; also called AT-VH5/AT-Vk2
B18: deimmunized humanized antibody huAbF46 including a combination of AT-VH4 and AT-Vk1 (antibody, IgG1, V domains shown)
VH: B1 VH with S79N
VL: B1 VL with S12T, I21M
notes: expressed from pANTVhG1 and pANTVk vectors (IgG1, kappa) in HEK293 cells; also called AT-VH4/AT-Vk1
B19: deimmunized humanized antibody huAbF46 including a combination of AT-VH3 and AT-Vk1 (antibody, IgG1, V domains shown)
VH: B1 VH
VL: B1 VL with S12T, I21M
notes: expressed from pANTVhG1 and pANTVk vectors (IgG1, kappa) in HEK293 cells; also called AT-VH3/AT-Vk1
B20: deimmunized humanized antibody huAbF46 including a combination of AT-VH1 and AT-Vk1 (antibody, IgG1, V domains shown)
VH: B1 VH with Q3K, T93S
VL: B1 VL with S12T, I21M
notes: expressed from pANTVhG1 and pANTVk vectors (IgG1, kappa) in HEK293 cells; also called AT-VH1/AT-Vk1
B21: chimeric antibody chAbF46 (antibody, V domains shown)
VH: B1 VH with Q3K, G44A, K78Q, T80I, N86D, S87T, T93S, S117A
VL: DILMTQSPSSLTVSAGEKVTMSCKSSQSLLASGNQNNYLAWHQQKPGRSPKMLIIWASTRVSGVPDRFIGSGSGTDFTLTINSVQAEDLAVYYCQQSYSAPLTFGAGTKLELKR

Each binder was assayed against T1, human c-Met/Fc fusion protein (R&D Systems) (human, UniProt P08581 25-932) (assay: competition ELISA on coated c-Met/Fc; competitor biotinylated chAbF46 (0.1 ug/ml)).
T1 construct: Bought reagent; also called c-Met/Fc chimera (R&D Systems Cat. No. 358-MT/CF); not shown: Fc part of the bought fusion
Description: The antigens were coated by overnight incubation at a temperature of 4° C. using Nunc Immuno MaxiSort 96 well flat bottom microtiter plate (Fisher Cat. No. DIS-971-030J) and 1.0 μg/ml and 100 μl/well of c-Met/Fc chimera (R&D Systems Cat. No. 358-MT/CF). chAbF46 and 20 humanized antibodies were diluted and at a concentration of 10 μg/ml to 0.078 μg/ml, they were mixed with biotinylated chAbF46 (0.1 μg/ml, final conc.), followed by incubation at a temperature of 37° C. for 2 hours. The amount of biotinylated chAbF46 antibody binding to the antigen was measured using streptavidin-HRP (Sigma cat. No S5512) and an OPD substrate (Sigma Cat. No. P9187), and IC50 data were calculated from the results and the data are shown in Table 1 below (all units in nM).

T1 sequence (P08581 25-932 limits assumed): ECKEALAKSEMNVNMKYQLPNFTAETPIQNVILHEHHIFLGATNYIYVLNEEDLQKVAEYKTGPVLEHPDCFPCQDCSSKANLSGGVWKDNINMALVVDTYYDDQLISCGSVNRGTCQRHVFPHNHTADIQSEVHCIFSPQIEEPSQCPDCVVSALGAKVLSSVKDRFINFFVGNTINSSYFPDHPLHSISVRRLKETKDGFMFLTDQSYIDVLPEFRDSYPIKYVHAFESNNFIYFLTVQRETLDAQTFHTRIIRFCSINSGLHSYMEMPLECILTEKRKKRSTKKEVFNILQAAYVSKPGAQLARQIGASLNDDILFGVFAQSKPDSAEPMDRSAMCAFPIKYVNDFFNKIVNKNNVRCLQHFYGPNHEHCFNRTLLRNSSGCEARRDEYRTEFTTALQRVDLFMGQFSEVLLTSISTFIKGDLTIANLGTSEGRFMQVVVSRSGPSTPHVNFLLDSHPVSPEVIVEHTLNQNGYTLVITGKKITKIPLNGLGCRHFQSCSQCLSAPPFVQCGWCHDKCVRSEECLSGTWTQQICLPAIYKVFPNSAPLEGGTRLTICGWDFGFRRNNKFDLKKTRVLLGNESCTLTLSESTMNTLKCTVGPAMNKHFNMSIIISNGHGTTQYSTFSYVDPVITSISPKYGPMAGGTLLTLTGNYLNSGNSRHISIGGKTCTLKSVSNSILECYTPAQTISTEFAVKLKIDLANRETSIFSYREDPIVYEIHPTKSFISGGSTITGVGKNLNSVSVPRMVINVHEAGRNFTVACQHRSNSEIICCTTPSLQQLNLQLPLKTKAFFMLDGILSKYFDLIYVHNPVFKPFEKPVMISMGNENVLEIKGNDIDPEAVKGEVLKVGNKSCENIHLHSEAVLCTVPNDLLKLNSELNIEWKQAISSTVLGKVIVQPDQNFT

IC50 | Binder
4.5 nM | B1
1.28 nM | B2
1.41 nM | B3
2.3 nM | B4
1.57 nM | B5
1.69 nM | B6
1.37 nM | B7
1.81 nM | B8
1.62 nM | B9
2.3 nM | B10
1.99 nM | B11
5.51 nM | B12
1.51 nM | B13
1.49 nM | B14
3.13 nM | B15
2.04 nM | B16
1.46 nM | B17
2.4 nM | B18
3.53 nM | B19
1.48 nM | B20

The binders below were run against T2, human c-Met protein antigen (human, UniProt P08581 25-932, limits assumed) (assay: Biacore SPR, antibody immobilized on CM5 chip, human c-Met protein injected).
T2 construct: also called c-Met antigen
T2 sequence (P08581 25-932 limits assumed): as above

Kd | Binder
4.27 nM | B21
